Legend:
human CD47 [1] = target: T1, human CD47 (human, UniProt Q08722 19-323); assay: flow cytometry, titration of SIRPα-Fc-bio on Jurkat cells
human CD47 [2] = target: T1, human CD47; assay: cell-based or functional assay

Row | EC70 (human CD47 [1]) [µg/mL] | phagocytosis of Raji tumor cell line targets by primary human macrophages (EC50) (human CD47 [2]) [ng/mL] | Molecule
1 | 7.5 | – | biotinylated fusion protein of SIRPα (SIRPα-Fc-bio) (Fc fusion)
2 | – | ~300 | anti-CD47 antibody 2.3D11 (antibody, V domains shown) VH: QVQLQESGPGLVKPSGTLSLTCAVSGVSIRSINWWNWVRQPPGKGLEWIGEIYHSGSTNYNPSLKSRVTISVDKSKNQFSLKLNSVTAADTAVYYCARDGGIAVTDYYYYGLDVWGQGTTVTVSS VL: EIVLTQSPATLSLSPGERATLSCRASESVSSNLAWYQQKPGQAPRLLIYGAFNRATGIPARFSGSGSGTDFTLTISSLEPEDFAVYYCQQRSDWFTFGGGTKVEIKR

From US20180201677A1 (ERASMUS UNIVERSITY MEDICAL CENTER, published 2018)
